Source: patent US20110263816A1
No end group written: not given here.

B1: K3a,eRh2 (peptide)
peptide: KISALKQKESALEQKISALEK
modifications: also: Rh2(OAc)2 dirhodium centre bound through two Glu side chains, places not given here
A % conv. at 24 h (covalent modification with diazo 1, MALDI-TOF MS) (E3gX, X = Asp) of 53 % conv, a % conv. at 24 h (covalent modification with diazo 1, MALDI-TOF MS) (E3gX, X = Arg) of 73 % conv and a % conv. at 24 h (covalent modification with diazo 1, MALDI-TOF MS) (E3gX, X = Phe) greater than 95 % conv were found for B1 in this work. For the same binder, the % conv. at 24 h (covalent modification with diazo 1, MALDI-TOF MS) (E3gX, X = Gln) was greater than 95 % conv, the % conv. at 24 h (covalent modification with diazo 1, MALDI-TOF MS) (E3gX, X = Trp) was greater than 95 % conv and the % conv. at 24 h (covalent modification with diazo 1, MALDI-TOF MS) (E3gX, X = Asn) was 70 % conv. The % conv. at 24 h (covalent modification with diazo 1, MALDI-TOF MS) (E3gX, X = Tyr) was greater than 95 % conv, the % conv. at 24 h (covalent modification with diazo 1, MALDI-TOF MS) (E3gX, X = His) was 17 % conv and the % conv. at 24 h (covalent modification with diazo 1, MALDI-TOF MS) (E3gX, X = Glu) was 76 % conv. The % conv. at 24 h (covalent modification with diazo 1, MALDI-TOF MS) (E3gX, X = Ser) was 28 % conv, the % conv. at 24 h (covalent modification with diazo 1, MALDI-TOF MS) (E3gX, X = Lys) was 8 % conv and the % conv. at 24 h (covalent modification with diazo 1, MALDI-TOF MS) (E3gX, X = Cys) was 78 % conv.
